Source: patent US20260117244A1, “INHIBITORY RNA FOR THE CONTROL OF PHYTOPATHOGENS” (priority 2021, published 2026)

Tests used:
[1] = test system: G. orontii MGH1; assay: Spray-induced gene silencing (SIGS), G. orontii spore production on A. thaliana (whole plant and detached leaf assays); assay type: in vivo, Golovinomyces orontii; settings: topical dsRNA against G. orontii target (Gor Seq ID); detached leaf assay; n>=3
[2] = test system: grapevine powdery mildew E. necator; assay: Vineyard field trials of topical dsRNA: powdery mildew disease incidence and disease severity (Kearney and Armstrong sites); assay type: in vivo, Erysiphe necator; settings: for powdery mildew disease incidence: Chenin Blanc, 3 weeks after end of treatments (June 23), untreated ~80%; for mean disease severity (percent of berries with powdery mildew per bunch): June 28, almost 4 weeks post dsRNA treatment, untreated 12%
Procedure: The tests were done at Kearney Agriculture Research and Extension Center, Parlier, CA (Fresno County) and Armstrong Plant Pathology Field Station at University of California, Davis, CA. Susceptible grapevine cultivars were tested—Sauvignon Blanc at Kearney and Chenin Blanc at Davis. In both cases, the Stihl backpack sprayer SR450 was used and sprayer calibration, and normalization was performed to ensure equal doses of treatment applied to each replicate. During the trial period, vines were irrigated by drip irrigation and the regular maintenance of weeding, herbicide and insecticide treatments were done by the Kearney or Davis site field staff. In early season, 2.0 gallons/5 replicates and in mid to late season 2.5 to 3.0 gallons/5 replicates were sprayed. All appropriate personal protective equipment (PPE) was used and required training was completed including pesticide application training and heat exhaustion training. A randomized block design was used with 5 replicates for each treatment. Two adjacent vines were used as one experimental unit and the area between two trunks (yellow box) was sprayed and assessed (FIG. 16).
The trial was conducted at Kearney Agricultural Research and Extension Center, Parlier, CA on blocks of the susceptible white wine variety Sauvignon Blanc. Total of 5 different gene targets from grapevine powdery mildew E. necator, EnCYP51 (SEQ ID NO:182), EnLIP1 (SEQ ID NO:183), EnICL2 (SEQ ID NO:186), EnMS (SEQ ID NO:188) and EnAPG9 (SEQ ID NO:208) were tested at this site by backpack spraying of the experimental units with dsRNA designed specifically against these target genes. The treatments were placed in a randomized block design with 5 replicates of each (dsRNA treatments 1-5), 5 replicates of Gold Standard (GS) and 5 replicates of untreated control (UT Control). Gold Standard refers to the pesticides normally used by growers to control powdery mildew: Sulfur and other chemical fungicides such as Rally, Quintec, and Luna. Between each treatment replicate, consisting of two vines, there was a spacer vine to avoid the spray drift from one treatment another.
FIG. 17 provides an overview of the treatment schedule at Kearney. A total of 4 treatments of dsRNA were performed between May and July, replacing the 4 final treatments of the GS. Data were collected at the times marked by the gray dots in FIG. 17. The monitoring of powdery mildew index data and manual scouting of disease in the field was used to adjust timing schedule per standard protocol (www2.ipm.ucanr.edu/weather/grape-powdery-mildew-risk-assessment-index/?src=redirect2refresh).
The total number of bunches per replicate (mean of 130) and the bunches with powdery mildew growth were counted and percent of infected bunches per replicate was calculated.
Disease severity was calculated by counting the number of infected berries compared to total berries in a bunch. 25 bunches from both sides of the canopy were assessed per replicate.
This trial was conducted at University of California Davis Plant Pathology Armstrong Facility on white wine variety Chenin Blanc. A total of 4 different gene targets from grapevine powdery mildew E. necator, EnLIP1 (Seq ID No:183), EnICL2 (Seq ID 186), EnMS (Seq ID No:188) and EnAPG9 (Seq ID No:208) were tested at this site by treating the vines with dsRNA designed against these target genes. A randomized block design with 5 replicates of each (treatments 1-5) and 5 replicates of untreated control (UT Control) was utilized. Spray protocols and spray volumes were the same as done by Akif Eskalen's team as shown on this link (Elfar et al. 2021, ucanr.edu/sites/eskalenlab/files/355630.pdf) and in Table 10. Eskalen's lab performed 3rd party commercial fungicide trials for the industry.
In this field trial, a total of 3 sprays of dsRNA were performed between May and early June (FIG. 21). For the dsRNA treatments, no parallel chemical treatments were performed prior to the dsRNA treatments. […]

B1: 181 (nucleic acid, listed as Golovinomyces orontii)
chain: ATGTCTAATCAGCTAAAACATCCCTCTTTACTCATTCCAGGCCCCGTTGAGATTGACGATGCTGTCCTTCACTCTATGAGCCATCACAGATCCTCATCTTACTGCAGTGAGAGCCATGTGGACATATCGTTTATAAAAACTTTTGGAAAAACGTTGTACATGCTCAGGAAGCTATTCCAATCTAATGATCCTTACTCTCAACCATTCGTAATTTCCGGATCTGGTACCCTAGGATGGGATCTAGTAGCCGCAAATTTAGCGGAACGCGGTGATGATGTCTTAGTATTACACACGGGTTACTTTGCAGACTCTTTCTCCGATTGCTTTGAGACCTACGGGATAAACGTCACACAGCTTATAGCTCCGATTGGTTCAAGACCCCAACTAATAGAGATTGAAGAAGAATTATCAAAAAAGACCTACAAACTTCTAACAGTGACCCATGTCGATACCTCGACTGGCGTATTAAATGAACTGGAGCCAATTTCAGAAATAGTTCATCGGGTTTCTCCTGAGACCCTTGTAATTGTTGATGGAGTGTGCAGTGTCGGGTCTGAGGAGATCGCTTTCGACTCCTGGAAACTCGATGGAGTTATCACTGCAAGCCAGAAAGCAATTGGTGCACCGGCTGGTCTTTCCATCTCAATTTTCAGTGGCCGTGCGATTCAGTCATTTAATGACCGACAGACTCCTCCTGGGTCTTACTATGCATCATTCAAGAATTGGATGCCTATCATGCAGAGCTATGAAGCCCAAGAGCCTTCATATTTTGCAACTCCATCCATTCATTTGATCCATGCACTTCACACCTCTTTAACGCAAATTCTCTCACGCCCTCTTTCAGAGCGGTTCACTATTCACAGAGAAATATCTCAAAGAGTAAAAGAAGCAGTTTCTGGAATGGGATTAACTCAGTTGGCTGCCAATCCTGAAAATCAAGCAAACGGAATGACAGCAATATATTTGCCAGATAATATTAAAGCGAAAGACCTTTTAACCAAGATACTTCAAAAAGGAGTTGTTCTTGCTGGTGGATTACATAAAGAAATTGCTCATAAGTATATTCGCTTTGGTCATATGGGGGTGAGCGTGACCAAGCCTGAAAGGGGTGATATTGAACGAGCTATCAAAGCTTTGGAGACAAGTCTTTCAGAGTTAGGATATCGTAGAGAGAAACAGTCTTAG
modifications: listed as DNA
- G. orontii Spore Production on Arabidopsis, Detached Leaf Assay, % reduction [1]: 62%

B2: EnMS: dsRNA against E. necator Malate synthase (target SEQ ID NO:188) (nucleic acid)
chain: TACAAGCTCAGATCAGACCGAAAACTTCCAACGCTTATTATAAGACCTCGTGGCTGGCACTTAGATGAGAAACATGTAACTATTGAAGGAGAGCCAATATCCGGCTCTCTATTCGATTTTGGACTATACTTTTTTCACAATGCCAAAGAACTGATAAAACGAGACTTAGGGCCCTACTTTTATCTTCCAAAGATGGAATCTTATCTAGAAGCCCGTCTTTGGAATGATGTCTTCAACCTAGCACAGGACTATATTGGTATTTCTCGTGGAACTATACGCGCTACAGTTCTAATTGAAACCATACTTGCTGCATTTGAAATG
modifications: misc_feature 1..321: note = Inhibitory double stranded RNA; listed as RNA
- powdery mildew disease incidence ([2]; Armstrong site): ~20%
- mean disease severity (percent of berries with powdery mildew per bunch) ([2]; Armstrong site): 2%

B3: EnAPG9: dsRNA against E. necator Autophagy protein Apg9 (target SEQ ID NO:208) (nucleic acid, listed as Golovinomyces orontii)
chain: ATGCCGTCTATCCCCATCACTATCATTACTGGCTTTCTAGGGTCTGGTAAAACAACTCTCCTTCTCAATATTCTTCCTCAAATACTTGCCAAGAATCCGAAATATAAATTAGCGCTTCTCAAAAATGAATTTGGAGATTTGGCTGTCGATAGTCAACTTGCAGGCTCTTCTATCACTGGTGTTCGTGAGATTCTAAATGGCTGCATTTGCTGTAACCTCGTCGGCTCTCTCTCATCGGCCCTTGAGGAGCTCACAGAGAGTATTTCTCCCGACCGAATAGTGATTGAAACGTCTGGGTCAGCATTCCCTGCAACGCTAGCTATGGAGGTTAATCGACTAGCGCGGGAGACCCAGGGTAAATATGTTCTAGATGGTGTAGTGACTGTTATTGATGTCGAAAACTGGAAGGGATATGAAGATACTAGCTTTACCGCACGATTACAAGCTCGTTACACAGATCTTGTTGTTTTTAATAAGTGGGAGGATGTTGGTGAAAGGAGGTGGGACGAATGTTTAGATCGACTGGGTGATATGGAGGTTGAAATTCCATGGGTTAAGAGTCAGAGGGGATTTGTTGATATGGATATTATCTTTGGCCTTGATGGAGGACTAGCAAAAGAATTAGAGGGAGAAGTAGAGCAAGGCCTACATCAGCAAAAAAAAACGCACAAGGACGGCGAAAGTCACCAGAACGAGGTTGAGGTACTTTCTGTCACCCTTTCTAAAAAATCTGATATCTCCTCGACCATTACACGTCCGAATTCAGAGCTTACCCCAAAAATTGATACTGATGCTCTGCTGAAACTTCTCCAAACAGCACCCAAGGACGAGGTCTACCGGATAAAGTCAATCTTTACTTCTTCTACACCTATGCCTTCATCTACTCCTATATCATCTTCAGATCTATCAGAAACGCCAGTGTCTTCAGTTGCTGGCCCAAATAAATACATTCTAAATTGGTCATTTGGTCGCTGGACCTGCACACCTATGCCCTCCACTAATTCTTCAACCACAGGAGACAGCTTTGAGCACCCATCTAGCGAGGCCGTAGGTCAAGGAGAAGTTTTCCTTCGCATGATTATAATTCTCTCAAGAGGTGCTGGTAAGAAATGGAAAAAAAGACTTGAGGATGGAGGTTTTATACGTTTCAAGGGTGTGGCCGGAACCGACGTACAGAATTTAAATGTTGTTCCCATCAGTTAA
modifications: listed as DNA
- powdery mildew disease incidence ([2]; Armstrong site): ~20%
- fold by which average disease incidence of untreated control increases faster than that of the dsRNA treatment (slopes) ([2]; Armstrong site, FIG. 22 panel B): 2.74 fold
- mean disease incidence ([2]; Armstrong site, July 16, more than six weeks after dsRNA treatments): 24%
- mean disease severity (percent of berries with powdery mildew per bunch) ([2]; Armstrong site): 1%
- powdery mildew infection / disease in vineyard ([2]; topical spraying, vineyard field trials 2021, trial sites in California): effective

B4: EnLIP1: dsRNA against E. necator TAG lipase 1 (target SEQ ID NO:183) (nucleic acid)
chain: ATTAATACTGGTGCTGTACAGCGCCTATTACACATTAATGAGGACTGTTTAACTGTCACTGTTCAAAAACCATCATATGCGACTCCCGACTCTAAGTTTCCTGTCGTGTTCTCTCTATTTTTTGGAGGGTTTGGTTTTGGTTCAACGGCAATATATGATGCCTCTAAACTTATTCAAGCAGGTATCAATGCAGGTAAACCTATCGTCTACGTTGCTGTAAATTATCGTTTGGGTGCATTTGGATGGCTTGGAGGAAGAGAAATTAAAGAGGCAGGTCTCGCTAATCTTGGCCATTACG
modifications: misc_feature 1..298: note = Inhibitory double stranded RNA; listed as RNA
- powdery mildew disease incidence ([2]; Armstrong site): ~20%
- mean disease severity (percent of berries with powdery mildew per bunch) ([2]; Armstrong site): 1%
